Source: article PMC3682496

Molecular target: maltose-binding protein (MBP-DHhN) modified with 6-azicholestanol (not stated | Drosophila)
Experiment: cross-linking

stoichiometry N: 1
Substance: Scube2, HA-tagged (from UniProt Q9JJS0 29-997) (natural protein)
